Results reported in patent publication US12104181B2, “Compositions and methods for treating viral infections targeting TRIM7” (THE BOARD OF REGENTS OF THE UNIVERSITY OF TEXAS SYSTEM, priority 2021, dated 2024).

B1: TRIM32: human RING type E3 ligase expressed from lentiviral vector (protein, UniProt Q13049 2-653, looked up)
E3 ubiquitin-protein ligase …: AAAAASHLNLDALREVLECPICMESFTEEQLRPKLLHCGHTICRQCLEKLLASSINGVRCPFCSKITRITSLTQLTDNLTVLKIIDTAGLSEAVGLLMCRSCGRRLPRQFCRSCGLVLCEPCREADHQPPGHCTLPVKEAAEERRRDFGEKLTRLRELMGELQRRKAALEGVSKDLQARYKAVLQEYGHEERRVQDELARSRKFFTGSLAEVEKSNSQVVEEQSYLLNIAEVQAVSRCDYFLAKIKQADVALLEETADEEEPELTASLPRELTLQDVELLKVGHVGPLQIGQAVKKPRTVNVEDSWAMEATASAASTSVTFREMDMSPEEVVASPRASPAKQRGPEAASNIQQCLFLKKMGAKGSTPGMFNLPVSLYVTSQGEVLVADRGNYRIQVFTRKGFLKEIRRSPSGIDSFVLSFLGADLPNLTPLSVAMNCQGLIGVTDSYDNSLKVYTLDGHCVACHRSQLSKPWGITALPSGQFVVTDVEGGKLWCFTVDRGSGVVKYSCLCSAVRPKFVTCDAEGTVYFTQGLGLNLENRQNEHHLEGGFSIGSVGPDGQLGRQISHFFSENEDFRCIAGMCVDARGDLIVADSSRKEILHFPKGGGYSVLIREGLTCPVGIALTPKGQLLVLDCWDHCIKIYSYHLRRYSTP
B2: TRIM24: human RING type E3 ligase expressed from lentiviral vector (protein, UniProt O15164 1-1050, looked up)
Transcription intermediary …: MEVAVEKAVAAAAAASAAASGGPSAAPSGENEAESRQGPDSERGGEAARLNLLDTCAVCHQNIQSRAPKLLPCLHSFCQRCLPAPQRYLMLPAPMLGSAETPPPVPAPGSPVSGSSPFATQVGVIRCPVCSQECAERHIIDNFFVKDTTEVPSSTVEKSNQVCTSCEDNAEANGFCVECVEWLCKTCIRAHQRVKFTKDHTVRQKEEVSPEAVGVTSQRPVFCPFHKKEQLKLYCETCDKLTCRDCQLLEHKEHRYQFIEEAFQNQKVIIDTLITKLMEKTKYIKFTGNQIQNRIIEVNQNQKQVEQDIKVAIFTLMVEINKKGKALLHQLESLAKDHRMKLMQQQQEVAGLSKQLEHVMHFSKWAVSSGSSTALLYSKRLITYRLRHLLRARCDASPVTNNTIQFHCDPSFWAQNIINLGSLVIEDKESQPQMPKQNPVVEQNSQPPSGLSSNQLSKFPTQISLAQLRLQHMQQQVMAQRQQVQRRPAPVGLPNPRMQGPIQQPSISHQQPPPRLINFQNHSPKPNGPVLPPHPQQLRYPPNQNIPRQAIKPNPLQMAFLAQQAIKQWQISSGQGTPSTTNSTSSTPSSPTITSAAGYDGKAFGSPMIDLSSPVGGSYNLPSLPDIDCSSTIMLDNIVRKDTNIDHGQPRPPSNRTVQSPNSSVPSPGLAGPVTMTSVHPPIRSPSASSVGSRGSSGSSSKPAGADSTHKVPVVMLEPIRIKQENSGPPENYDFPVVIVKQESDEESRPQNANYPRSILTSLLLNSSQSSTSEETVLRSDAPDSTGDQPGLHQDNSSNGKSEWLDPSQKSPLHVGETRKEDDPNEDWCAVCQNGGELLCCEKCPKVFHLSCHVPTLTNFPSGEWICTFCRDLSKPEVEYDCDAPSHNSEKKKTEGLVKLTPIDKRKCERLLLFLYCHEMSLAFQDPVPLTVPDYYKIIKNPMDLSTIKKRLQEDYSMYSKPEDFVADFRLIFQNCAEFNEPDSEVANAGIKLENYFEELLKNLYPEKRFPKPEFRNESEDNKFSDDSDDDFVQPRKKRLKSIEERQLLK
B3: TRIM23: human RING type E3 ligase expressed from lentiviral vector (protein, UniProt P36406 1-574, looked up)
E3 ubiquitin-protein ligase …: MATLVVNKLGAGVDSGRQGSRGTAVVKVLECGVCEDVFSLQGDKVPRLLLCGHTVCHDCLTRLPLHGRAIRCPFDRQVTDLGDSGVWGLKKNFALLELLERLQNGPIGQYGAAEESIGISGESIIRCDEDEAHLASVYCTVCATHLCSECSQVTHSTKTLAKHRRVPLADKPHEKTMCSQHQVHAIEFVCLEEGCQTSPLMCCVCKEYGKHQGHKHSVLEPEANQIRASILDMAHCIRTFTEEISDYSRKLVGIVQHIEGGEQIVEDGIGMAHTEHVPGTAENARSCIRAYFYDLHETLCRQEEMALSVVDAHVREKLIWLRQQQEDMTILLSEVSAACLHCEKTLQQDDCRVVLAKQEITRLLETLQKQQQQFTEVADHIQLDASIPVTFTKDNRVHIGPKMEIRVVTLGLDGAGKTTILFKLKQDEFMQPIPTIGFNVETVEYKNLKFTIWDVGGKHKLRPLWKHYYLNTQAVVFVVDSSHRDRISEAHSELAKLLTEKELRDALLLIFANKQDVAGALSVEEITELLSLHKLCCGRSWYIQGCDARSGMGLYEGLDWLSRQLVAAGVLDVA
B4: TRIM29: human RING type E3 ligase expressed from lentiviral vector (protein, UniProt Q14134 1-588, looked up)
Tripartite motif-containing …: MEAADASRSNGSSPEARDARSPSGPSGSLENGTKADGKDAKTTNGHGGEAAEGKSLGSALKPGEGRSALFAGNEWRRPIIQFVESGDDKNSNYFSMDSMEGKRSPYAGLQLGAAKKPPVTFAEKGELRKSIFSESRKPTVSIMEPGETRRNSYPRADTGLFSRSKSGSEEVLCDSCIGNKQKAVKSCLVCQASFCELHLKPHLEGAAFRDHQLLEPIRDFEARKCPVHGKTMELFCQTDQTCICYLCMFQEHKNHSTVTVEEAKAEKETELSLQKEQLQLKIIEIEDEAEKWQKEKDRIKSFTTNEKAILEQNFRDLVRDLEKQKEEVRAALEQREQDAVDQVKVIMDALDERAKVLHEDKQTREQLHSISDSVLFLQEFGALMSNYSLPPPLPTYHVLLEGEGLGQSLGNFKDDLLNVCMRHVEKMCKADLSRNFIERNHMENGGDHRYVNNYTNSFGGEWSAPDTMKRYSMYLTPKGGVRTSYQPSSPGRFTKETTQKNFNNLYGTKGNYTSRVWEYSSSIQNSDNDLPVVQGSSSFSLKGYPSLMRSQSPKAQPQTWKSGKQTMLSHYRPFYVNKGNGIGSNEAP
modifications: lentiviral expression
notes: human RING type E3 ligase expressed from lentiviral vector
B5: TRIM27: human RING type E3 ligase expressed from lentiviral vector (protein, UniProt P14373 1-513, looked up)
Zinc finger protein RFP: MASGSVAECLQQETTCPVCLQYFAEPMMLDCGHNICCACLARCWGTAETNVSCPQCRETFPQRHMRPNRHLANVTQLVKQLRTERPSGPGGEMGVCEKHREPLKLYCEEDQMPICVVCDRSREHRGHSVLPLEEAVEGFKEQIQNQLDHLKRVKDLKKRRRAQGEQARAELLSLTQMEREKIVWEFEQLYHSLKEHEYRLLARLEELDLAIYNSINGAITQFSCNISHLSSLIAQLEEKQQQPTRELLQDIGDTLSRAERIRIPEPWITPPDLQEKIHIFAQKCLFLTESLKQFTEKMQSDMEKIQELREAQLYSVDVTLDPDTAYPSLILSDNLRQVRYSYLQQDLPDNPERFNLFPCVLGSPCFIAGRHYWEVEVGDKAKWTIGVCEDSVCRKGGVTSAPQNGFWAVSLWYGKEYWALTSPMTALPLRTPLQRVGIFLDYDAGEVSFYNVTERCHTFTFSHATFCGPVRPYFSLSYSGGKSAAPLIICPMSGIDGFSGHVGNHGHSMETSP
modifications: lentiviral expression
notes: as for B4
B6: TRIM26: human RING type E3 ligase expressed from lentiviral vector (protein, UniProt Q12899 1-539, looked up)
Tripartite motif-containing …: MATSAPLRSLEEEVTCSICLDYLRDPVTIDCGHVFCRSCTTDVRPISGSRPVCPLCKKPFKKENIRPVWQLASLVENIERLKVDKGRQPGEVTREQQDAKLCERHREKLHYYCEDDGKLLCVMCRESREHRPHTAVLMEKAAQPHREKILNHLSTLRRDRDKIQGFQAKGEADILAALKKLQDQRQYIVAEFEQGHQFLREREEHLLEQLAKLEQELTEGREKFKSRGVGELARLALVISELEGKAQQPAAELMQDTRDFLNRYPRKKFWVGKPIARVVKKKTGEFSDKLLSLQRGLREFQGKLLRDLEYKTVSVTLDPQSASGYLQLSEDWKCVTYTSLYKSAYLHPQQFDCEPGVLGSKGFTWGKVYWEVEVEREGWSEDEEEGDEEEEGEEEEEEEEAGYGDGYDDWETDEDEESLGDEEEEEEEEEEEVLESCMVGVARDSVKRKGDLSLRPEDGVWALRLSSSGIWANTSPEAELFPALRPRRVGIALDYEGGTVTFTNAESQELIYTFTATFTRRLVPFLWLKWPGTRLLLRP
modifications: lentiviral expression
notes: as for B4
B7: TRIM22: human RING type E3 ligase expressed from lentiviral vector (protein, UniProt Q8IYM9 1-498, looked up)
E3 ubiquitin-protein ligase …: MDFSVKVDIEKEVTCPICLELLTEPLSLDCGHSFCQACITAKIKESVIISRGESSCPVCQTRFQPGNLRPNRHLANIVERVKEVKMSPQEGQKRDVCEHHGKKLQIFCKEDGKVICWVCELSQEHQGHQTFRINEVVKECQEKLQVALQRLIKEDQEAEKLEDDIRQERTAWKNYIQIERQKILKGFNEMRVILDNEEQRELQKLEEGEVNVLDNLAAATDQLVQQRQDASTLISDLQRRLRGSSVEMLQDVIDVMKRSESWTLKKPKSVSKKLKSVFRVPDLSGMLQVLKELTDVQYYWVDVMLNPGSATSNVAISVDQRQVKTVRTCTFKNSNPCDFSAFGVFGCQYFSSGKYYWEVDVSGKIAWILGVHSKISSLNKRKSSGFAFDPSVNYSKVYSRYRPQYGYWVIGLQNTCEYNAFEDSSSSDPKVLTLFMAVPPCRIGVFLDYEAGIVSFFNVTNHGALIYKFSGCRFSRPAYPYFNPWNCLVPMTVCPPSS

Tested on: coxsackievirus B3 (CVB3-GFP)
Type: cell-based
Conditions: HeLa cells, replicate R1; for Percent Infected R1: GFP-positive cells within RFP-positive gate

Molecule | Percent Infected R1 [%] | Z score R1
B1 | 58.4 | −0.384
B2 | 69.5 | −0.243
B3 | 61.5 | −0.345
B4 | 68 | −0.262
B5 | 60.7 | −0.355
B6 | 49.3 | −0.5
B7 | 49.4 | −0.499
